Data: paper PMC3646893, “Solution Structure and Rpn1 Interaction of the UBL Domain of Human RNA Polymerase II C-Terminal Domain Phosphatase” (PLoS ONE, 2013)

Molecular target: T1, Rpn1 regulatory subunit 1 (Rpn1 394-568), as used for NMR titration and ITC (human, UniProt Q13200 394-568)
T1 construct: source: E. coli BL21 (DE3), purified (size exclusion chromatography)
Assay: ITC; VP-ITC, 25°C, NMR buffer; 20 µM Rpn1 regulatory subunit 1 in the cell, 25 injections of 6 µL of 400 µM UBL domain; one-site fit
Conditions: both partners purified

T1 sequence (Q13200 394-568): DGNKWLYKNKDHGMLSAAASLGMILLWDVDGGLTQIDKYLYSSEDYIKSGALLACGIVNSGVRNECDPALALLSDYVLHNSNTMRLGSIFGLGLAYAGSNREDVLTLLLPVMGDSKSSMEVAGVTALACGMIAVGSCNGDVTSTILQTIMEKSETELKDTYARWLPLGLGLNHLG

B1: UBL domain of hUBLCP1 (UBLCP1 1-81), as used for NMR and ITC (domain or fragment, human, UniProt Q8WVY7 1-81, looked up)
chain: MALPIIVKWGGQEYSVTTLSEDDTVLDLKQFLKTLTGVLPERQKLLGLKVKGKPAENDVKLGALKLKPNTKIMMMGTREES
notes: UBL domain of human UBLCP1, residues 1-81; 15N-labelled (M9 medium) for the NMR titration; also called 15N-labeled UBL domain; source: E. coli BL21 (DE3), purified (size exclusion chromatography)
Kd: 10.3 µM
dH: -53.8 kcal/mol
